We go through one substance from article PMC7840605.

For orientation: IC50 means the concentration at which inhibition is half-maximal. The low end stands for greater potency in that assay, the high end for weaker potency in that assay.

The target of assay [1] is SARS-CoV-2 spike (S) protein (SARS-CoV-2) (UniProt P0DTC2).
Assay [2] has the same target. The source holds these as a separate data set.
The target is the same in assay [3]. The source holds these as a separate data set.
Assay [4] has as its target SARS-CoV-2 S protein (RBD) (SARS-CoV-2) (UniProt P0DTC2). Put plainly: ELISA; competitive inhibition ELISA: 1 μg/ml ACE2 coated in 0.01 M Tris pH 8.8; S (RBD) 1 μg/ml pre-incubated with HP-OVA or unmodified OVA at the indicated concentrations was added; antibody detection, absorbance at 450 nm. Background: ELISA stands for enzyme-linked immunosorbent assay.

In assay [1], “3-hydroxyphthalic anhydride-modified chicken ovalbumin (from UniProt P01012 1-386)” had an IC50 against live SARS-CoV-2 in Vero E6 cells (CPE assay); blocks S with ACE2 of 4.78 µM and an IC90 against live SARS-CoV-2 in Vero E6 cells (CPE assay); blocks S with ACE2 of 12.2 µM. Besides, in assay [2], the IC50 of inhibition of SARS-CoV-2 S pseudovirus entry into 293T/ACE2 cells (luciferase); blocks S with ACE2 amounted to 0.7 µM and the IC50 of inhibition of SARS-CoV-2 S pseudovirus entry into Vero E6 cells (luciferase); blocks S with ACE2 is 1.21 µM. Besides, in assay [3], the IC50 of inhibition of S-mediated cell-cell fusion of 293T/SARS-CoV-2/EGFP and Huh 7 cells; blocks S with ACE2 was 1.54 µM; the IC50 of inhibition of S-mediated cell-cell fusion of 293T/SARS-CoV-2/EGFP and Vero E6 cells; blocks S with ACE2 was found to be 1.74 µM. The substance further showed a half-maximal inhibitory concentration (IC50) in assay [4] of 17.9 µM.
